What all share (assay): SPR; Lge1-CT immobilised on a CM5 chip, Bre1-LR flown over; Biacore 8K, 25°C, 20 mM HEPES (pH 7.5), 200 mM sodium chloride, 0.02% Tween 20
Settings in all cases: both partners purified
On the technique in general: SPR reads the build-up and loss of mass on a sensor chip optically.

The target in experiment [1] is T1, Bre1-LR (Bre1 residues 227–700, LBD and RING domains), 6× histidine tag (budding yeast, UniProt Q07457 227-700).
T1 construct: two Bre1 polypeptides form the dimeric coiled-coils of the LBD in the crystal structure; also called WT; source: E. coli BL21 Rosetta (DE3), purified (Ni-NTA, heparin, gel filtration)
T1 sequence (looked up): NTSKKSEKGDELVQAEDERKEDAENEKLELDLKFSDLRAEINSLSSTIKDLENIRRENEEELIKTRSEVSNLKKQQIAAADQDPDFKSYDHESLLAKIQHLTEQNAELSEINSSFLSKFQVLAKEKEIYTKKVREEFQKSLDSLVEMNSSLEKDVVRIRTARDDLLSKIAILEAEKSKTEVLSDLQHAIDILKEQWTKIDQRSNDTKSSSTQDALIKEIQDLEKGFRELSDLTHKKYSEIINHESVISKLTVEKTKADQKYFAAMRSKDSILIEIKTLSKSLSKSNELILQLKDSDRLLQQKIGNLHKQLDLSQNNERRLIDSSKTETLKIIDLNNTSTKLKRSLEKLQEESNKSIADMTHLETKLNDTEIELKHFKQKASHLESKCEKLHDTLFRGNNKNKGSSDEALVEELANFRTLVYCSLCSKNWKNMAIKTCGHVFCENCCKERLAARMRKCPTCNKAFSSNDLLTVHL

Experiment [2] deals with T2, Bre1-LR K379E (budding yeast, UniProt Q07457 227-700, K379E).
T2 construct: source: E. coli BL21 Rosetta (DE3), purified (Ni-NTA, heparin, gel filtration)
T2 sequence (looked up): T1 sequence (looked up) with K153E

Experiment [3] addresses T3, Bre1-LR A489N (budding yeast, UniProt Q07457 227-700, A489N).
T3 construct: source: E. coli BL21 Rosetta (DE3), purified (Ni-NTA, heparin, gel filtration)
T3 sequence (looked up): T1 sequence (looked up) with A263N

In experiment [4] the target is T4, Bre1-LR V382N (budding yeast, UniProt Q07457 227-700, V382N).
T4 construct: source: E. coli BL21 Rosetta (DE3), purified (Ni-NTA, heparin, gel filtration)
T4 sequence (looked up): T1 sequence (looked up) with V156N

Here are results for one molecule from PMC12802937 (Nucleic Acids Research, 2026).

Substitutions are numbered along the chain they refer to.

B1: Lge1-CT (Lge1 residues 261–332), intein-chitin binding domain (CBD) tag construct (domain or fragment, budding yeast, UniProt Q02796 261-332, looked up)
chain: KNVKKTNNTESECEKAREVFKESDSIDSALEELNLKINSNELELRLLNNQCDKHALNIQLTQEKLDSLLLMQ
notes: Lge1, budding yeast, residues 261-332; residues 268–331 resolved in the electron density; the intein-CBD tag is named on the protein in the pull-down; also called intein-CBD-fused Lge1-CT; intein-CBD-tagged Lge1-CT; source: E. coli BL21 Rosetta (DE3): cleared cell extract on chitin resin (pull-down); purified (chitin, heparin, gel filtration) for ITC and SPR; co-purified with Bre1-LR for the …
B1: the dissociation constant Kd in experiment [1] stood at 17.5 nM; in experiment [2], 41.3 nM; in experiment [3], 41.1 nM; in experiment [4], 63 nM.

Broadly, the Kd is the free concentration of one partner at which half of the binding sites on the other are occupied at equilibrium, for simple one-to-one binding. High values mean lower affinity, low ones higher affinity.
